This data set deals with CN1[C@@H]2CC[C@H]1CC(=O)C2. Kind of data set: purified protein. The following applies: pH 6.4.

In general, Km refers to the substrate concentration at which the rate is half of its maximum. By Vmax is commonly meant the rate approached at saturating substrate. The term kcat/Km denotes the second-order rate constant that governs catalysis at low substrate concentration. SlTRI (Anisodus luridus): the Km is reported as 40.90 ± 7.059 mM, the Vmax was found to be 1.95 µmol/min/mg and the kcat/Km is 24 M⁻¹ s⁻¹.

For the origin of these results see paper PMC5650612, “Enhancing Tropane Alkaloid Production Based on the Functional Identification of Tropine-Forming Reductase in Scopolia lurida, a Tibetan Medicinal Plant” (Frontiers in Plant Science, 2017).
